The values below come from PMC7145526, “The mRNA repressor TRIM71 cooperates with Nonsense-Mediated Decay factors to destabilize the mRNA of CDKN1A/p21”.

The target in this data set is T1, Flag-TRIM71-NHL (Homo sapiens, UniProt Q2Q1W2 585-868).
T1 sequence: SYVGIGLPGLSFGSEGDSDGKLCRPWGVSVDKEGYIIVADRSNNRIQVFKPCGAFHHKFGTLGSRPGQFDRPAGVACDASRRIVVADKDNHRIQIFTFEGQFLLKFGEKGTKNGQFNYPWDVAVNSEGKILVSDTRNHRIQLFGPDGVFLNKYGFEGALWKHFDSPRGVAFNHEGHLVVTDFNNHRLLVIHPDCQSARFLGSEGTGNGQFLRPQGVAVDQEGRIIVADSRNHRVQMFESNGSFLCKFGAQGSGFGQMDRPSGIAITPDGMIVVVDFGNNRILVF
In words: fluorescence polarization; 1x TBST, 30 min, RT; 100 nM 5'-Cy3 RNA, increasing protein concentrations; pH and salt not given. The following applies: protein: recombinant; tags: Flag; label: 5'-Cy3; hairpin (disruptive mutation). (In general: In fluorescence polarisation assays a small probe gives low polarisation when free and higher when bound to something large.)

B1: TRE M#3 (SL M#3), loop position III G to C (structured_RNA)
RNA: GUCUUGUCAAGGC
In the case of B1, the binding result is “no binding”.
